Reference: patent US20240218054A1 (MABLOC, published 2024)
Numbering of substitutions follows the chain as printed.

B1: ADI-46724 (antibody, V domains shown)
VH: QVQLQESGPGLVEPSGTLSLTCVVTGDSISSRSWWSWVRQPPGKGLEWIGEIYHSGTTTYSPSLKSRVIISLDKSENHFSLKMTSVTAADTAVYYCARVIRDLRDYYDGSGYGPDAFDIWGQGTTVTVSS
VL: QPVLTQPPSVSAAPGQKVTISCSGSSSNIGSNFVSWYQQFPGTAPKLLIYDDNKRPSGIPDRFSGSKSGTSATLGITGLQTGDEADYYCETWDSRLSVVFGGGTKLTVL
notes: full-length IgG; also called Antibody Number 133
B2: ADI-50539 (antibody, V domains shown)
VH: EVQLVESGPGLVKPSGTLSLTCAVSGGSISSSNWWSWVRQPPGKGLEWIGEIYHSGSTNYNPSLKSRVTISVDKSKNQFSLKLSSVTAADTAVYYCARARWEDGNYYYGMDVWGQGTTVTVSS
VL: QPVLTQPPSVSAAPGQKVTISCSGSSSNIGNNYVSWYQQLPGTAPKLLIYDNNKRPSGIPDRFSGSKSGTSATLGITGLQTGDEADYYCGTWDSSLSAVVFGGGTKVTVL
notes: full-length IgG; also called Antibody Number 134
B3: ADI-42217 (antibody, V domains shown)
VH: EVQLVESGGGVVQPGRSLRLSCADSGFTFSYSAIHWVRQAPGKGLEWVAVISYDGSNKYYADSVKGRFTISRDNSKNTLYLQMNSLRPEDTAVYYCARHSGGYSSKDKPTEYFQHWGQGTLVTVSS
VL: QSVLTQPPSVSGAPGQRVTISCTGSSSDIGAGYDVHWYQQLPGTAPKLLIYGNTNRPSGVPDRFSGSKSGTSASLAITGLQAEDEADYYCQSYDSSLSGVVFGGGTKLTVL
notes: full-length IgG
B4: ADI-48951 (antibody, V domains shown)
VH: EVQLLESGPGLVKPSGTLSLTCAVSGASISSNNWWSWVRQSPGKGLEWIGEIFHSGTTNYNPSLKSRVTISVDKSKNQFSLKLNSVTAADTAVYYCARDVGVAAVITGSVRWGQGTLVTVSS
VL: DIVLTQSPDSLAVSLGERAAINCKSSQSVFFSSDNKNYLAWYQQKPGQPPKLLIYWASTRESGVPDRFSGSGSGTDFTLTISSLQAEDVAVYYCQQFYTTPSTFGQGTKVEIK
notes: full-length IgG; also called Antibody Number 138
B5: ADI-50537 (antibody, V domains shown)
VH: QVQLVQSGSELKKPGASVKVSCKASGYTFTSYAMNWVRQAPGQGLEWMGWINTNTGNPTYAQGFTGRFVFSLDTSVSTAYLQISSLKAEDTAVYYCARGYCSSTSCYGGLYWFDPWGQGTLVTVSS
VL: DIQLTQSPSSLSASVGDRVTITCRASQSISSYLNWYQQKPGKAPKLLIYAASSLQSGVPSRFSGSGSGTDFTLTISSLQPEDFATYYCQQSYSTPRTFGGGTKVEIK
notes: full-length IgG; also called Antibody Number 139
B6: ADI-46737 (antibody, V domains shown)
VH: QVQLVQSGGGVVQPGRSLRLSCAASGFTFSSYAMHWVRQAPGKGLEWVAVISYDGSNKYYADSVKGRFTISRDNSKNTLYLQMNSLRAEDTAVYYCARDGAGDYIWGSYRHKGLHYYYGMDVWGQGTTVTVSS
VL: DIQLTQSPSSLSASVGDRVTITCRASQGIRNDLGWYQQKPGKAPKRLIYAASSLQSGVPSRFSGSGSGTEFTLTISSLQPEDFATYYCLQHNSYPLTFGGGTKVEIK
notes: full-length IgG; also called Antibody Number 140
B7: ADI-48950 (antibody, V domains shown)
VH: EVQLVESGGGVVQPGRSLRLSCAVSGFTFSTSPLHWVRQAPGKGLEWVAVSSFVATDKYYADSVKGRFTVSRDNSKNTLYLQMNSLRPEDTAVYYCARGFGELPGFDIWGQGTMVTVSS
VL: SYVLTQPPSASGSPGQSVTISCTGTSSDFGGYNYVSWYQQHPGKAPKLMVYEVAKRPSGVPDRFSGSKSGNTASLTVSGLQAEDEADYYCSSYAGSNNFVVFGGGTKLTVL
notes: full-length IgG; also called Antibody Number 142
B8: ADI-42114 (antibody, V domains shown)
VH: EVQLLESGGGLVKPGGSLRLSCAASGFTFSSYSMNWVRQAPGKGLEWVSSISSSSSYIYYADSVKGRFTISRDNAKNSLYLQMNSLRAEDTAVYYCARDSWGPFDYWGQGTLVTVSS
VL: B2 VL with P2S, V99K, V107L
notes: full-length IgG; also called Antibody Number 143
B9: ADI-49194 (antibody, V domains shown)
VH: EVQLVESGGAVVQPGRSLRLSCAASGFTFSSYGMHWVRQAPGKGLESVAVIWYDGSNKNYADSVKGRFTISRDNSKNTLFLQMNSLRAEDSAMYYCAKTYDSRAYYYLDYWGQGTLVTVSS
VL: ETTLTQSPSTLSTSVGDRVTITCRASQSISSWLAWYQQKPGKAPKLLIYRASSLETEVPSRFSGSGSGTDFTLTISRLQPDDFATYFCQQYNRYPYTFGQGTKLEIK
notes: full-length IgG
B10: ADI-42124 (antibody, V domains shown)
VH: EVQLLESGGGLVQPGGSLRLSCAASGFTFSSYAMSWVRQAPGKGLELVSAISSSGGSTYYADSVKGRFTISRDNSKNTLYLQMNSLRAEDTALYYCAKDLFYDFWTGITIDYWGQGTLVTVSS
VL: QPVLTQPRSVSGSPGQSVTISCTGTSSDVGGYNYVSWYQQHPGKAPKLMIYDVSKRPSGVPDRFSGSKSGNTASLTISGLQAEDEADYYCCSYAGSYTFVLFGGGTKLTVL
notes: full-length IgG
B11: ADI-45123 (antibody, V domains shown)
VH: EVQLLESGGGLVQPGGSLRLSCAASGFIFSNYWMSWVRQAPGKGLEWVANIKPDGSEKYYVESVRGRFTISRDNAKNSLYLQMNSLRAEDTAVFYCARDGGTVSDGLDVWGQGTTVTVSS
VL: DIRVTQSPSSLSASVGDRVTISCRASESISIYLNWYQQKPGKAPNLLIYAASSLQRGVPSRFSGSGSGTDFTLTITSLQAEDFATYYCQQTFSIWTFGQGTKVEIK
notes: full-length IgG
B12: ADI-50533 (antibody, V domains shown)
VH: QVQLQESGPGLVKPSGTLSLTCAVSGGSISSSNWWSWVRQPPGKGLEWIGEIYHSGSTNYNPSLKSRVTISVDKSKNQFSLKLSSVTAADTAVYYCARVVWYSSSSHLFDYWGQGTLVTVSS
VL: QPVLTQPPSVSAAPGQKVTISCSGSSSNIGNNYVSWYQQLPGTAPKLLIYDNNKRPSGIPDRFSGSKSGTSATLGITGLQTGDEADYYCGTWDSSLSAGKVFGGGTKLTVL
notes: full-length IgG; also called Antibody Number 147
B13: ADI-49205 (antibody, V domains shown)
VH: EVQLVESGGGVVQTGRSLRLSCAASGFTFSISGMHWVRQAPGKGLEWVALIWYDGTKKYYADSVKGRFTISRDDFKNTVYLQMNSLRADDTAVYYCARIKSDAFDLWGQGTTVTVSS
VL: QSALTQPPSASGSPGQSVTISCTGTSSDVGGFNYVSWYQQHPGRAPKLVIYEVNRRPSGVPDRFSGSKSGYTASLTVSGLQAEDEADYYCFSYAGSNNYVFGTGTKVTVL
notes: full-length IgG; also called Antibody Number 148
B14: ADI-45151 (antibody, V domains shown)
VH: EVQLLESGGGVVQPGKSLRLSCAASGFSFGDYGMHWVRQTPDKGLEWVAVILFDGSKKFYADSVRGRFTISRDNSKNNLYLQMSSLRPEDTAVYYCAKFPLRDGGSGEGFDYWGQGTLVTVSS
VL: DIVMTQTPLSSPVTLGQPASISCRSSQSLVHSDGNTYLSWLQQRPGQPPRFLIYKISNRFSGVPDRFSGGGAGTDFTLKISRVEAEDVGVYYCMQASQFPLTFGGGTKVEIK
notes: full-length IgG; also called Antibody Number 149
B15: ADI-42786 (antibody, V domains shown)
VH: EVQLVESGPGLVKPSGTLSLTCAVSGGSISSSYWWSWVRQSPGKGLEWIGEVYHSGSTHYNPSLKSRVTISVDKSKNQFSLKLTSVTAADTAVYYCARDGEGHYYRSGDNWFDRWGQGTLVTVSS
VL: B2 VL with P2S, N31S, L40F, N53S, K67M
notes: full-length IgG; also called Antibody Number 15
B16: ADI-49030 (antibody, V domains shown)
VH: QVQLVQSGGGLVQPGGSLRLSCAASGFTFSDHYMDWVRQAPGKGLEWVGRTRNKANSYTTEYAASVKGRFTISRDDSKNSLYLQMNSLKTEDTAVYYCAGVGITGTTGIDYWGQGTLVTVSS
VL: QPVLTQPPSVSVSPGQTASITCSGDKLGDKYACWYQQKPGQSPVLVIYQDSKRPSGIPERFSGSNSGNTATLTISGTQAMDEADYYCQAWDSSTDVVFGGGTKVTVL
notes: full-length IgG; also called Antibody Number 151
B17: ADI-50200 (antibody, V domains shown)
VH: EVQLLESGGDLVQPGRSLRLSCAASGFNLIDYAMHWVRQVPGKGLEWVSGISWNSRSIGYADSVKGRFTISRDNAKNSLYLQMDSLKHEDTALFYCAKGAAAGPFPYFYYAMDVWGQGTTVTVSS
VL: DIQVTQSPSSLSASVGDRVTITCRASQGISNNLAWYQQKPGIFPKLLIYAASTLQSGVPSRFSGSGSGTDFILTISSLQPEDVATYYCQKYQSAPPTFGGGTKLEIK
notes: full-length IgG
B18: ADI-42210 (antibody, V domains shown)
VH: EVQLLESGPGLVQPSGTLSLTCTASGGSISSSNWWSWVRQPPGKGLEWIGDIYHTGSTSYNPSLKSRVTISVDKSKNQFSLKLSSVTAADTAVYYCARAELSAWYYFDHWGQGTLVTVSS
VL: B12 VL with P2S, S94T, K100R
notes: full-length IgG; also called Antibody Number 16
B19: ADI-50201 (antibody, V domains shown)
VH: QVQLVESGGGLVKPGGSLRLSCAASGFIFSDYYMNWIRQAPGKGLDWVSTISGSGKSIYYADSVKGRFTISRDNAKNSLYLQMNSLSAEDTAVYYCARVSPLDDGYGYTYYGMDVWGQGTTVTVSS
VL: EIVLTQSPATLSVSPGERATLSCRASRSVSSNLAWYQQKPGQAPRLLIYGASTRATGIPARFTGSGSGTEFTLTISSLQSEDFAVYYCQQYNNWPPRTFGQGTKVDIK
notes: full-length IgG; also called Antibody Number 17
B20: ADI-48895 (antibody, V domains shown)
VH: EVQLLESGGGLVKPGGSLRLSCAASGFTFSDYYMSWIRQAPGKGLEWVSYITSSGNTKYYADSVKGRFTISRDNAKNSLYLQISSLRAEDTAVYYCARDWAELTTITNYFYPWGQGTTVTVSS
VL: DIQLTQSPSSVSASVGDRVTITCRASQGISSWLAWYQQKPGKAPKLLIHAASSLQSGVPSRFSGSGSGTDFTLTISSLQPEDFATYYCQQAKSFPPTFGQGTRLEIK
notes: full-length IgG; also called Antibody Number 18
B21: ADI-42228 (antibody, V domains shown)
VH: EVQLLESGGGLVQPGRSLRLSCAASGFTFDDYAMHWVRQPPGKGLEWVSGISWNGGGIGYADSVKGRFTISRDNAKNSLYLQMNSLRADDTALYYCAKAENRIGYCSAGSCYLTYFDYWGQGTLVTVSS
VL: QPVLTQPASVSGSPGQSITISCTGTSSDVGGYNYVSWYQQHPGKAPKLLIYDVSNRPSGVSNRFSGSKSANSASLTISGLQAEDEADYYCNSYTSSSTLVFGGGTKLTVL
notes: full-length IgG; also called Antibody Number 19
B22: ADI-42198 (antibody, V domains shown)
VH: EVQLVESGPGLVKPSGTLSLTCAVSGGSISSNKWWSWVRQPPGKGLEWIGEIYHSGSTSYNPSLKSRVSISVDKSKNQFSLKLSSVTAADTAVYYCARVEWAYSSSWWLDYWGQGTLVTVSS
VL: B12 VL with P2S, Y88I, S94T, K100G
notes: full-length IgG; also called Antibody Number 21
B23: ADI-42190 (antibody, V domains shown)
VH: QVQLVESGGGLVKPGGSLRLSCAASGFTFSDDYMSWIRQAPGKGLEWVSYISGSGRAMYYADSVQGRFTVSRDNAKNSLFLQMNNLRAEDTAVYYCAKHTGDKPLVWAPSVYGLDVWGQGTTVTVSS
VL: QSVLTQPASVSGSPGQSITISCTGTSSDIGAYNYVSWYQQHPGKAPKLMIYDVTNRPSGVSNRFSGSKSGSSASLTISGLQTEDEADYYCSSYTRRSTLVFGGGTKLTVL
notes: full-length IgG; also called Antibody Number 22

What follows are binders tested against T1, recombinant YFV E protein (soluble E, sE; YFV Asibi strain) (Yellow fever virus, Asibi strain, UniProt Q6DV88 286-678) (assay: BLI monovalent (IgG on tip)).
T1 construct: also called YFV E antigen; YFV E monomer
T1 sequence (Q6DV88 286-678): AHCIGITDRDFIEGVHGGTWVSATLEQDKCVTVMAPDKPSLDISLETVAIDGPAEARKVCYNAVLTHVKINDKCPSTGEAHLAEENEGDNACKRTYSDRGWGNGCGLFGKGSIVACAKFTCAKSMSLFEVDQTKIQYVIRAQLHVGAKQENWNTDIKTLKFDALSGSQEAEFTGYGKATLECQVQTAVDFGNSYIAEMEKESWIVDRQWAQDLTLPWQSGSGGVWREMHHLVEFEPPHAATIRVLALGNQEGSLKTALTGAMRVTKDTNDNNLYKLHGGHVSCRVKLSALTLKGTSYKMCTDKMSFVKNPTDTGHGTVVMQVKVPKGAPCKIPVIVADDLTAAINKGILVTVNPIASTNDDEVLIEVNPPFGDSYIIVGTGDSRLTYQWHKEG

Binder | Kd
B1 | > 100 nM
B2 | > 100 nM
B3 | 4 nM
B4 | 2.67 nM
B5 | > 100 nM
B6 | > 100 nM
B7 | 1.53 nM
B8 | > 100 nM
B9 | 234 nM
B10 | 5.88 nM
B11 | 2.1 nM
B12 | > 100 nM
B13 | 12.9 nM
B14 | > 100 nM
B15 | 12.7 nM
B16 | 125 nM
B17 | > 100 nM
B18 | 18.7 nM
B19 | 13.1 nM
B20 | 4.49 nM
B21 | 8.64 nM
B22 | 33.2 nM
B23 | 13.1 nM
